In paper PMC7116876, “Mechanistic Insights into Regulation of the ALC1 Remodeler by the Nucleosome Acidic Patch” (Cell reports, 2020):

Test system: sites of DNA damage in U2OS cells
Test: Recruitment of YFP-ALC1 to DNA breaks upon laser damage
Assay type: cell-based, Homo sapiens
Conditions: YFP-ALC1 R860W background, 405 nm laser damage
Description: U2OS Flp-In T-REx cells were a kind gift from Durocher lab and maintained in DMEM medium (GIBCO/Thermo Fisher) supplemented with 10% FBS and Pen/Strep with 15.5 μg/ml zeocin (Invitrogen) and 4 μg/ml blasticidin. CRISPR inactivation of ALC1 was carried out in Flp-In T-REx U2OS cells by transiently expressing Cas9 and gRNA targeting Exon3 of ALC1 F-oligo: CACCGCAG GAAGATTAAATGATGAA R-oligo: […] with px459 (addgene) ([Ran et al., 2013]). Single cell clones were grown by limiting dilution and then screened for ALC1 expression by western blot. […]
Cells were seeded on 8 well Lab-Tek chamber slides (Thermo Fisher Scientific). […] In order to monitor the association kineticsof YFP-tagged ALC1 at sites of laser micro-irradiation, the time evolution of YFP fluorescence in the damaged region of interest was recorded upon excitation with a 488 nm laser. Recruitment of YFP to bleached ROIs was analyzed in FIJI ([Schindelin et al., 2012]) and data were processed in R. In brief, nuclear masks were segmented by local thresholding. […] In order to quantify recruitment, the mean YFP fluorescence intensities at a given time point t (It) were normalized to the mean initial fluorescence intensities I0 of the same region of interest. Normalized intensities were additionally multiplied with BGI0/BGIt to correct for photobleaching, where BGI represents the background fluorescence intensity. […]

B1: R611A/S612A: YFP-ALC1 with R611A/S612A linker mutation and R860W, expressed in U2OS cells (protein, UniProt Q86WJ1 1-897, looked up, variant R611A S612A R860W)
Chromodomain-helicase-DNA-bind …: MERAGATSRGGQAPGFLLRLHTEGRAEAARVQEQDLRQWGLTGIHLRSYQLEGVNWLAQRFHCQNGCILGDEMGLGKTCQTIALFIYLAGRLNDEGPFLILCPLSVLSNWKEEMQRFAPGLSCVTYAGDKEERACLQQDLKQESRFHVLLTTYEICLKDASFLKSFPWSVLVVDEAHRLKNQSSLLHKTLSEFSVVFSLLLTGTPIQNSLQELYSLLSFVEPDLFSKEEVGDFIQRYQDIEKESESASELHKLLQPFLLRRVKAEVATELPKKTEVVIYHGMSALQKKYYKAILMKDLDAFENETAKKVKLQNILSQLRKCVDHPYLFDGVEPEPFEVGDHLTEASGKLHLLDKLLAFLYSGGHRVLLFSQMTQMLDILQDYMDYRGYSYERVDGSVRGEERHLAIKNFGQQPIFVFLLSTRAGGVGMNLTAADTVIFVDSDFNPQNDLQAAARAHRIGQNKSVKVIRLIGRDTVEEIVYRKAASKLQLTNMIIEGGHFTLGAQKPAADADLQLSEILKFGLDKLLASEGSTMDEIDLESILGETKDGQWVSDALPAAEGGSRDQEEGKNHMYLFEGKDYSKEPSKEDRKSFEQLVNLQKTLLEKASQEGAALRNKGSVLIPGLVEGSTKRKRVLSPEELEDRQKKRQEAAAKRRRLIEEKKRQKEEAEHKKKMAWWESNNYQSFCLPSEESEPEDLENGEESSAELDYQDPDATSLKYVSGDVTHPQAGAEDALIVHCVDDSGHWGRGGLFTALEKRSAEPRKIYELAGKMKDLSLGGVLLFPVDDKESRNKGQDLLALIVAQHRDRSNVLSGIKMAALEEGLKKIFLAAKKKKASVHLPRIGHATKGFNWYGTERLIWKHLAARGIPTYIYYFPRSKSAVLHSQSSSSSSRQLVP
modifications: YFP fusion
notes: YFP-ALC1 with R611A/S612A linker mutation and R860W, expressed in U2OS cells
Question: B1 was tested. Which “overall extent of ALC1 recruitment to sites of DNA damage” value (n ≥ 131 traces from 3 independent experiments) did it give?
Answer: notably compromised the overall extent of ALC1 recruitment

Question: And the “recruitment kinetics at sites of DNA damage” value (single-exponential half times, n ≥ 131 traces)?
Answer: only modestly delayed recruitment kinetics
